{"source": "patent US9217036", "about": "(YALE UNIVERSITY, dated 2015)", "binders": {"B1": {"name": "full-length mouse PrP, cellular prion protein PrP^c (receptor)", "chain": "not shown"}}, "target": "biotin-tagged amyloid-beta 42-amino acid (Aβ42) peptide, oligomer preparation", "assay": "conclusion from the cell binding studies on transfected COS-7 cells", "data": [{"binder": "B1", "values": [{"measurement": "binding result", "result": "binds"}]}]}
